Results on one molecule are retold here after publication PMC11889887 (2025).

One may read the Ki as a measure of affinity in units of concentration, obtained from inhibition or displacement.

For experiment [1], the target named is T1, biotinylated recombinant human αvβ8 integrin (human, UniProt P06756 31-1048; P26012 43-684, biotin (chain and site not stated) | biotin (chain and site not stated)).
T1 chain 1: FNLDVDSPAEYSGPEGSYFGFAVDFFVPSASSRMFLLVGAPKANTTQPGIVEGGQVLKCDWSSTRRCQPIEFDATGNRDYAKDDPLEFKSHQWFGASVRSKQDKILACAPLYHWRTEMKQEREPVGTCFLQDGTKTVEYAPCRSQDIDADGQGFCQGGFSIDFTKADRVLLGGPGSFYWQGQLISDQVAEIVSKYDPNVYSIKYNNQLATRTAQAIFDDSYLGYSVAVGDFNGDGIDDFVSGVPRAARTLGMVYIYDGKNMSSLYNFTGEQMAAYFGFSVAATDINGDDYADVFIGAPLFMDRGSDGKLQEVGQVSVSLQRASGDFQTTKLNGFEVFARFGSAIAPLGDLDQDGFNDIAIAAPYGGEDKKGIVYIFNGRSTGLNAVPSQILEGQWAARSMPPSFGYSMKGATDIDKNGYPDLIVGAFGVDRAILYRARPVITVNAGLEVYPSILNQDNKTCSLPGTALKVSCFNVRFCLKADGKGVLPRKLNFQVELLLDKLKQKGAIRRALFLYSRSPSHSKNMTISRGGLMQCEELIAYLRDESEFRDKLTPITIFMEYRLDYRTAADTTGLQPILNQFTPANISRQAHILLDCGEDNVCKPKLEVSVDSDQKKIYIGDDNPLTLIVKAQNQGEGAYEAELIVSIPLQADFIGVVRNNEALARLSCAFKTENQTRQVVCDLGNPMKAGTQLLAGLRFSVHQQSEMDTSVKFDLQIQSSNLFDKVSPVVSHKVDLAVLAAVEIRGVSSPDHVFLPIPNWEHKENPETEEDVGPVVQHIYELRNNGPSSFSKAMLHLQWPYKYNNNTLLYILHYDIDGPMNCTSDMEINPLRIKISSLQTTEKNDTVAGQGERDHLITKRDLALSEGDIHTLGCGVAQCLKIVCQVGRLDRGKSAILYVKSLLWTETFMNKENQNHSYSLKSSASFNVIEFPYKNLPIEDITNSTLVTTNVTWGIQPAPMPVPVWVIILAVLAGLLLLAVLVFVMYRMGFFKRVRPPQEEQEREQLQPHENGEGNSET
T1 chain 2: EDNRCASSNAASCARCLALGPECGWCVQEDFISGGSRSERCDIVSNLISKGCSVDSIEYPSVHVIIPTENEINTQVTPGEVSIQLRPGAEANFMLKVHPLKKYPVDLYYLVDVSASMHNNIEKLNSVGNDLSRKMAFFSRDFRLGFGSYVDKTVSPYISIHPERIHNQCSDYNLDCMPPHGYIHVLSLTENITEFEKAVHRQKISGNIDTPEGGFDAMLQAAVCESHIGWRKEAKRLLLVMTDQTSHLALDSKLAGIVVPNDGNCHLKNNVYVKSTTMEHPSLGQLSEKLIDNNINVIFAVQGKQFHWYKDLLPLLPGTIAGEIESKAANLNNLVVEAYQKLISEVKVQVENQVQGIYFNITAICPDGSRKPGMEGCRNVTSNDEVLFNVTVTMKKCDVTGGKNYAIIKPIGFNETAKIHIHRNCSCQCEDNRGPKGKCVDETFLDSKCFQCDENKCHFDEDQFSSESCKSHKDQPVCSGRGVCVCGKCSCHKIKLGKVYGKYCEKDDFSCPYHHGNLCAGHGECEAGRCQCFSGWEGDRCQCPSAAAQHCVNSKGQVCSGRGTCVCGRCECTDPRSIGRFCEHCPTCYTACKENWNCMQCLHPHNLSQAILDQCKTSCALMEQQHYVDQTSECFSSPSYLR
The experiment in a line: ELISA; competition with latent TGFβ1.

Experiment [2] addresses T2, biotinylated recombinant human αvβ6 integrin (human, UniProt P06756 31-1048; P18564 22-709, biotin (chain and site not stated) | biotin (chain and site not stated)).
T2 chain 1: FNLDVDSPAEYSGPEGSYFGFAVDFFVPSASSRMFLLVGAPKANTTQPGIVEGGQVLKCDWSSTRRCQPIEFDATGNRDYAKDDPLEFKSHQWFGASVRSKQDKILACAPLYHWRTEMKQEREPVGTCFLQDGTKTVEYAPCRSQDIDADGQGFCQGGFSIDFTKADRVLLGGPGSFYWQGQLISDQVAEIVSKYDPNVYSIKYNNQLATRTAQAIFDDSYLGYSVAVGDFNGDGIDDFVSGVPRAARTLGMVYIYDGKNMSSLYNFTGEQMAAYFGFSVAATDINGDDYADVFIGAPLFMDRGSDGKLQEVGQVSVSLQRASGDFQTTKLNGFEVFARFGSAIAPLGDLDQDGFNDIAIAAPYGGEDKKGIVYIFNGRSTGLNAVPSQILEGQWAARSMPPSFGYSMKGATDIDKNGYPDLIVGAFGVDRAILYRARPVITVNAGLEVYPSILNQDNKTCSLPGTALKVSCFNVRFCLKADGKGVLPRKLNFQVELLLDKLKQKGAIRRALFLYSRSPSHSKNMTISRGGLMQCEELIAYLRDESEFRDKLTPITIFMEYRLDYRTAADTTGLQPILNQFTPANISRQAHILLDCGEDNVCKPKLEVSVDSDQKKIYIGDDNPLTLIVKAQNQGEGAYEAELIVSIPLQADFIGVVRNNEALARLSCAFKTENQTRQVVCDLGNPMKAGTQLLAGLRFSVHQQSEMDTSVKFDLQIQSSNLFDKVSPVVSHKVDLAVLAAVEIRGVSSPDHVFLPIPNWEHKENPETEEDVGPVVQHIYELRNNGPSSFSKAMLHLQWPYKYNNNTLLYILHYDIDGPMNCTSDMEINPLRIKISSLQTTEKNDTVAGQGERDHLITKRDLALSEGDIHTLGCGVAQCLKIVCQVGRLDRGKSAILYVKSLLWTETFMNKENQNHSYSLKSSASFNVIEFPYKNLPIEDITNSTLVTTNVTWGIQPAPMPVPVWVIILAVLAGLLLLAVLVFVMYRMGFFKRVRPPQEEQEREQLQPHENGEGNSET
T2 chain 2: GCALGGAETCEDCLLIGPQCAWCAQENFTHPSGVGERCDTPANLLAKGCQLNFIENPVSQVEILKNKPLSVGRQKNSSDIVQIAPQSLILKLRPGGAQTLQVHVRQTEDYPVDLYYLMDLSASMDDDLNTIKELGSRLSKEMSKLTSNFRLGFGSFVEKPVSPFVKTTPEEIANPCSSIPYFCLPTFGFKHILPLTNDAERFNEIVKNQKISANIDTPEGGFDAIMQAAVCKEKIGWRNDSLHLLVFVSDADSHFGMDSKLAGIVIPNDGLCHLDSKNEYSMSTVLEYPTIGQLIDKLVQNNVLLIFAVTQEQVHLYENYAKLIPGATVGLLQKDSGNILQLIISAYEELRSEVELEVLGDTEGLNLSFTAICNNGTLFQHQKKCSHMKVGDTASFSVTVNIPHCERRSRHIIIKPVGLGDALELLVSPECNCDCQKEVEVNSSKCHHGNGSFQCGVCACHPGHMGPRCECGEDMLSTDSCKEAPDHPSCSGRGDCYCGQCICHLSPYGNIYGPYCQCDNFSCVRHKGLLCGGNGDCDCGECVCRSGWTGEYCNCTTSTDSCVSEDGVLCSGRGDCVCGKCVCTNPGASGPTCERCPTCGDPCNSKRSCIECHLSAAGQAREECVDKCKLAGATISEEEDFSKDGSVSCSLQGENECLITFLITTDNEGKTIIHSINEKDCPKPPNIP
Put plainly: ELISA; competition with latent TGFβ1.

Bridge positions count the residues as written; N and C are the ends. Square brackets hold non-standard residues; d marks the D form. Ends that are not written are not given here. Lys(N3) = [N-]=[N+]=NCCCC[C@H](N)C(=O)O; Pra = C#CC[C@H](N)C(=O)O

As for CFETLRGDLRILSILR[Pra]QNL[Lys(N3)]KELQD-NH2 (triazole 17-21) [peptide 5a (chromogranin A-derived peptide)], the Ki in experiment [1] came to 2.74 nM; in experiment [2], 0.139 nM.
